Publication PMC11903750

Key:
[1] = molecular target: 30S ribosomal subunit (E. coli) (UniProt P0A7R9); assay: FRET or BRET; as a4, with 5 µM edeine
[2] = molecular target: 30S ribosomal subunit (E. coli) (UniProt P0A7R9); assay: FRET or BRET; as a4, with 5 µM GE81112

IF3 E166C, double-labelled (IF3DL) (from UniProt P0A707 1-180) (natural protein)
fold reduction of koff with edeine against no antibiotic [1]: 4 fold | fold reduction of koff with GE81112 against no antibiotic [2]: 2 fold
